What was measured:
EGFR [1] = biological target: T1, EGFR (UniProt P00533 25-1210, limits assumed); assay: flow cytometry, serial dilution on FaDu cells (EGFR-expressing), PE anti-human Fc detection
T1 construct: whole, on cells; the cell lines are human tumor lines
Procedure: (§1) Binding analysis of the trivalent, bispecific antibodies was performed by flow cytometry using tumor cell lines with different EGFR-expression levels (FIG. 20) (Table 12). Adherent cells were washed with PBS and shortly trypsinized at 37° C. Trypsin was quenched with FCS-containing medium and removed by centrifugation (500×g, 5 min.). Target cells (FaDu, LIM1215, SKBR-3, T-47-D, MCF-7 and Jurkat cells) at 1×10⁵ cells/well were incubated with a serial dilution of trivalent, bispecific antibodies for 1 h at 4° C. After removing excess of recombinant protein by washing with PBA (PBS, 2% FBS, and 0.02% sodium azide), bound protein was detected using PE-conjugated anti-human Fc mAb (Jackson ImmunoResearch Laboratories Inc). Fluorescence was measured using MACSquant VYB (Miltenyi Biotec) and data were analyzed using FlowJo (Tree Star). Relative median fluorescence intensities (MFI) were calculated as followed: relative MFI=((MFIₛₐₘₚₗₑ-(MFIdetection-MFIcells))/MFIcells).

EGFR [2] = biological target: T1, EGFR; assay: flow cytometry, serial dilution on T-47-D cells (EGFR-expressing), PE anti-human Fc detection
Procedure: as §1

EGFR [3] = biological target: T1, EGFR; assay: flow cytometry, serial dilution on LIM1215 cells (EGFR-expressing), PE anti-human Fc detection
Procedure: as §1

EGFR [4] = biological target: T1, EGFR; assay: flow cytometry, serial dilution on SKBR-3 cells (EGFR-expressing), PE anti-human Fc detection
Procedure: as §1

EGFR [5] = biological target: T1, EGFR; assay: flow cytometry, serial dilution on MCF-7 cells (EGFR-expressing), PE anti-human Fc detection
Procedure: as §1

EC50 (EGFR [1])	EC50 (EGFR [2])	EC50 (EGFR [3])	EC50 (EGFR [4])	EC50 (EGFR [5])	Binder
3.6 nM	0.2 nM	2.6 nM	0.8 nM	0.5 nM	scDb/Fab-Fc (1-1)+2, trivalent bispecific anti-EGFRxanti-CD3 (bispecific antibody) EVQLVESGGGLVQPGGSLRLSCAASGFSLTNYGVHWVRQAPGKGLEWLGVIWSGGNTDYNTPFTSRFTISRDNSKNTLYLQMNSLRAEDTAVYYCARALTYYDYEFAYWGQGTTVTVSSGGGGSDIQLTQSPSFLSASVGDRVTITCRASQSIGTNIHWYQQKPGKAPKLLIKYASESISGVPSRFSGSGSGTEFTLTISSLQPEDFATYYCQQNNNWPTTFGAGTKLEIKRGGGGSGGGGSGGGGSEVQLVESGGGLVQPGGSLRLSCAASGFSLTNYGVHWVRQAPGKGLEWLGVIWSGGNTDYNTPFTSRFTISRDNSKNTLYLQMNSLRAEDTAVYYCARALTYYDYEFAYWGQGTTVTVSSGGGGSDIQLTQSPSFLSASVGDRVTITCRASQSIGTNIHWYQQKPGKAPKLLIKYASESISGVPSRFSGSGSGTEFTLTISSLQPEDFATYYCQQNNNWPTTFGAGTKLEIKRAAADKTHTCPPCPAPPVAGPSVFLFPPKPKDTLMISRTPEVTCVVVDVSHEDPEVKFNWYVDGVEVHNAKTKPREEQYNSTYRVVSVLTVLHQDWLNGKEYKCKVSNKGLPSSIEKTISKAKGQPREPQVCTLPPSRDELTKNQVSLSCAVKGFYPSDIAVEWESNGQPENNYKTTPPVLDSDGSFFLVSKLTVDKSRWQQGNVFSCSVMHEALHNHYTQKSLSLSPGK heavy: QVQLVQSGAEVKKPGSSVKVSCKASGGTFSGYTMNWVRQAPGQGLEWMGLINPYKGVSTYNGKFKDRVTITADKSTSTAYMELSSLRSEDTAVYYCARSGYYGDSDWYFDVWGQGTLVTVSSASTKGPSVFPLAPSSKSTSGGTAALGCLVKDYFPEPVTVSWNSGALTSGVHTFPAVLQSSGLYSLSSVVTVPSSSLGTQTYICNVNHKPSNTKVDKKVEPKSCDKTHTCPPCPAPPVAGPSVFLFPPKPKDTLMISRTPEVTCVVVDVSHEDPEVKFNWYVDGVEVHNAKTKPREEQYNSTYRVVSVLTVLHQDWLNGKEYKCKVSNKGLPSSIEKTISKAKGQPREPQVYTLPPCRDELTKNQVSLWCLVKGFYPSDIAVEWESNGQPENNYKTTPPVLDSDGSFFLYSKLTVDKSRWQQGNVFSCSVMHEALHNHYTQKSLSLSPGK light: not shown
8.9 nM	0.4 nM	4 nM	2.8 nM	0.8 nM	scDb/scFv-Fc (1-1)+2, trivalent bispecific anti-EGFRxanti-CD3 (bispecific antibody, also called scDbhu225xhu225-Fc(hole)Δab + scFvhuU3-Fc(knob)Δab) chain 1: EVQLVESGGGLVQPGGSLRLSCAASGFSLTNYGVHWVRQAPGKGLEWLGVIWSGGNTDYNTPFTSRFTISRDNSKNTLYLQMNSLRAEDTAVYYCARALTYYDYEFAYWGQGTTVTVSSGGGGSDIQLTQSPSFLSASVGDRVTITCRASQSIGTNIHWYQQKPGKAPKLLIKYASESISGVPSRFSGSGSGTEFTLTISSLQPEDFATYYCQQNNNWPTTFGAGTKLEIKRGGGGSGGGGSGGGGSEVQLVESGGGLVQPGGSLRLSCAASGFSLTNYGVHWVRQAPGKGLEWLGVIWSGGNTDYNTPFTSRFTISRDNSKNTLYLQMNSLRAEDTAVYYCARALTYYDYEFAYWGQGTTVTVSSGGGGSDIQLTQSPSFLSASVGDRVTITCRASQSIGTNIHWYQQKPGKAPKLLIKYASESISGVPSRFSGSGSGTEFTLTISSLQPEDFATYYCQQNNNWPTTFGAGTKLEIKRAAADKTHTCPPCPAPPVAGPSVFLFPPKPKDTLMISRTPEVTCVVVDVSHEDPEVKFNWYVDGVEVHNAKTKPREEQYNSTYRVVSVLTVLHQDWLNGKEYKCKVSNKGLPSSIEKTISKAKGQPREPQVCTLPPSRDELTKNQVSLSCAVKGFYPSDIAVEWESNGQPENNYKTTPPVLDSDGSFFLVSKLTVDKSRWQQGNVFSCSVMHEALHNHYTQKSLSLSPGK chain 2: DIQMTQSPSSLSASVGDRVTITCRASQDIRNYLNWYQQKPGKAPKLLIYYTSRLHSGVPSRFSGSGSGTDFTFTISSLQPEDIATYYCQQGNTLPWTFGQGTKLEIKRGGGGSGGGGSGGGGSQVQLVQSGAEVKKPGSSVKVSCKASGGTFSGYTMNWVRQAPGQGLEWMGLINPYKGVSTYNGKFKDRVTITADKSTSTAYMELSSLRSEDTAVYYCARSGYYGDSDWYFDVWGQGTLVTVSSAAADKTHTCPPCPAPPVAGPSVFLFPPKPKDTLMISRTPEVTCVVVDVSHEDPEVKFNWYVDGVEVHNAKTKPREEQYNSTYRVVSVLTVLHQDWLNGKEYKCKVSNKGLPSSIEKTISKAKGQPREPQVYTLPPCRDELTKNQVSLWCLVKGFYPSDIAVEWESNGQPENNYKTTPPVLDSDGSFFLYSKLTVDKSRWQQGNVFSCSVMHEALHNHYTQKSLSLSPGK
